{
  "source": "patent US20220340666A1",
  "biological_target": "endogenous Galectin-9 on CRL-2134 cells (human) (UniProt O00182)",
  "sequence (O00182 whole entry)": "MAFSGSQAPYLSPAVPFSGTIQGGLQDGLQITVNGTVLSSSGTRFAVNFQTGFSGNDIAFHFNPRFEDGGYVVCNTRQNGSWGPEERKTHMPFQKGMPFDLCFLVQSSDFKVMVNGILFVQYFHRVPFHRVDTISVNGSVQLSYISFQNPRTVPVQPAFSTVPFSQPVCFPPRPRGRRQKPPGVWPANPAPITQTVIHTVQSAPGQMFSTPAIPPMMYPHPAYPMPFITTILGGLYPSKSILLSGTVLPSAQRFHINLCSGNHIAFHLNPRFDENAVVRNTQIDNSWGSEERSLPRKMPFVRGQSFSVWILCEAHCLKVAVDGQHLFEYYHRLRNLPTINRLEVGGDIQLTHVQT",
  "test": "cell-based binding assay, flow cytometry on CRL-2134 cells",
  "data": [
    {"binder": "G9.2-17 hIgG1 (antibody, V domains shown) VH: EVQLVESGGGLVQPGGSLRLSCAASGFTVSSSSIHWVRQAPGKGLEWVAYISSSSGYTYYADSVKGRFTISADTSKNTAYLQMNSLRAEDTAVYYCARYWSYPSWWPYRGMDYWGQGTLVTVSS VL: DIQMTQSPSSLSASVGDRVTITCRASQSVSSAVAWYQQKPGKAPKLLIYSASSLYSGVPSRFSGSRSGTDFTLTISSLQPEDFATYYCQQSSTDPITFGQGTKVEIKR", "values": [
      {"measurement": "Kd", "value": 0.41, "unit": "nM"}
    ]},
    {"binder": "G9.2-17 mIgG1 (antibody, V domains shown) VH: EVQLVESGGGLVQPGGSLRLSCAASGFTVSSSSIHWVRQAPGKGLEWVAYISSSSGYTYYADSVKGRFTISADTSKNTAYLQMNSLRAEDTAVYYCARYWSYPSWWPYRGMDYWGQGTLVTVSS VL: DIQMTQSPSSLSASVGDRVTITCRASQSVSSAVAWYQQKPGKAPKLLIYSASSLYSGVPSRFSGSRSGTDFTLTISSLQPEDFATYYCQQSSTDPITFGQGTKVEIKR", "values": [
      {"measurement": "Kd", "value": 2.91, "unit": "nM"}
    ]}
  ]
}
